# Source: patent US8440629B2
# Where two headings read alike, the source gives them in different places. Positions of bridges follow the written chain, without caps; N, C: chain ends. No end group written: not given here.
# What was measured:
# MAT CR23 (human) [1] = assay: solid-phase binding assay (FIG. 9); target not given, MatRAP1 was selected on MAT CR23
# 8D6 CR12 (human) = assay: solid-phase binding assay (FIG. 10)
# [2] = molecular target: recombinant human LRP1 ligand binding cluster II (human); assay: solid-phase binding assay, immobilised receptor
# LRP1 CR3-5 (human) [3] = assay: phage panning of a RAP library randomised at 256 and 270 on immobilised LRP1 CR3-5
# [4] = molecular target: recombinant human LRP1 ligand binding cluster II (human); assay: solid-phase binding assay, immobilised receptor, streptavidin-HRP detection, EDTA-corrected
# [5] = molecular target: recombinant human LRP1 ligand binding cluster II (human); assay: competition ELISA, inhibitor pre-incubated with immobilised LRP1 cluster II before washing; competitor ligand RAP d3
# [6] = molecular target: recombinant human LRP1 ligand binding cluster II (human); assay: competition ELISA on immobilised LRP1 cluster II; competitor ligand RAP d3 (2 nM)
# LRP2 CR89 (human) [7] = molecular target: LRP2 CR89 (human) (UniProt P98164); assay: solid-phase binding assay, immobilised CR protein, anti-RAP detection
# LRP2 CR34-36 (human) = LRP2 CR34-36 (human) (UniProt P98164); assay: as above
# LRP2 CR3536 (human) = LRP2 CR3536 (human) (UniProt P98164); assay: as above
# MAT CR23 (human) [8] = assay: as above
# LRP1 CR3-5 (human) [9] = assay: as above
# LRP1 CR3-5 (human) [10] = assay: as above; remark: listed apart in the source
# LRP2 CR89 (human) [11] = molecular target: LRP2 CR89 (human) (UniProt P98164); assay: as above; remark: listed apart in the source
# LRP2 CR89 R1088D (human) = LRP2 CR89 R1088D (human) (UniProt P98164); assay: solid-phase binding assay, immobilised mutant CR protein
# MAT CR23 (human), sequence (Q9Y5Y6 whole entry): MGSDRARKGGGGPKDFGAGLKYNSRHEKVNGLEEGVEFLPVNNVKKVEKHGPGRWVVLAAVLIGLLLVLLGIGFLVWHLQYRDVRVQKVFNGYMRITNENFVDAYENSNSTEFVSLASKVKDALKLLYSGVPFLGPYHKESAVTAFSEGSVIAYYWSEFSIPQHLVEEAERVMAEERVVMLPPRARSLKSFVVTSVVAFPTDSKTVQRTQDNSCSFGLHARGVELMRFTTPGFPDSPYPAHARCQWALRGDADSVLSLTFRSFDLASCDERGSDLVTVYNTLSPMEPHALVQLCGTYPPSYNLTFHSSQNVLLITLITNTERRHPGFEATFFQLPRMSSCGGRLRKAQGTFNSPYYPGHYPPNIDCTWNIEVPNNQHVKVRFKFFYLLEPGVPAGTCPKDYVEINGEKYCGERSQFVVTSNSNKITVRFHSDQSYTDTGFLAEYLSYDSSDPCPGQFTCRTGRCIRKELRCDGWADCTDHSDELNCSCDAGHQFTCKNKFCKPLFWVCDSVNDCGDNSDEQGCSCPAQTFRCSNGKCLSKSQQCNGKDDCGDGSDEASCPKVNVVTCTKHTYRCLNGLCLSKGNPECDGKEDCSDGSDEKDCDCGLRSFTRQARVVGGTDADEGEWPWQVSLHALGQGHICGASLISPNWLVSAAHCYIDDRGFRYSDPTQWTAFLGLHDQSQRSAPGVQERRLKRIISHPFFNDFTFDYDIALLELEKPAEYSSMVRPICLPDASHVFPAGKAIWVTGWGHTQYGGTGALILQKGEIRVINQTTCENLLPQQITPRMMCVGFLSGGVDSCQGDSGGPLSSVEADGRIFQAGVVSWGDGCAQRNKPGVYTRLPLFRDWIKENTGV
binder,measurement,setting,value
"MatRAP1 truncated variant, amino acids 243-313 (ligand) FREELKHFGAKIERHNHYQKQLEIAHEWLRHAESVGDGERVSRSREKHALLEGRTKELGYTVKKHLQDLSG",fold increase in binding affinity over MatRAP1 N-42,MAT CR23 (human) [1],4 fold
same,fold increase in binding affinity over full-length MatRAP1 d3,MAT CR23 (human) [1],12 fold
"truncated 320RAP1, amino acids 243-313 (ligand) FREELKHFEAKIESHNHYQKQLEIAHESMRHAESVGYGERMSRSREKHALLEGRTKELGYTVTMHLQDLSG",fold improvement in affinity over the full-length variant,8D6 CR12 (human),3.5 fold
mRAP-8c (disulfide 1-67) peptide: CGKHFEAKIEKHNHYQKQLEIAHEKLRHAESVGDGERVSRSREKHALLEGRTKELGYTVKKHLQDGC,Kd,[2],4 to 6 nM
wild-type RAP displayed on M13 phage (ligand) YSREKNQPKPSPKRESGEEFRMEKLNQLWEKAQRLHLPPVRLAELHADLKIQERDELAWKKLKLDGLDEDGEKEARLIRNLNVILAKYGLDGKKDARQVTSNSLSGTQEDGLDDPRLEKLWHKAKTSGKFSGEELDKLWREFLHHKEKVHEYNVLLETLSRTEEIHENVISPSDLSDIKGSVLHSRHTELKEKLRSINQGLDRLRRVSHQGYSTEAEFEEPRVIDLWDLAQSANLTDKELEAFREELKHFEAKIEKHNHYQKQLEIAHEKLRHAESVGDGERVSRSREKHALLEGRTKELGYTVKKHLQDLSGRISRARAEAETG,fold enrichment after one round of panning,LRP1 CR3-5 (human) [3],7 fold
"tag-free RAP d3 peptide linked to maleimide-PEO2-biotin (ligand, maleimide-PEO2-biotin on the unique C-terminal cysteine) LDRLRRVSHQGYSTEAEFEEPRVIDLWDLAQSANLTDKELEAFREELKHFEAKIEKHNHYQKQLEIAHEKLRHAESVGDGERVSRSREKHALLEGRTKELGYTVKKHLQDLSGRISRARC",Kd,[4],8 nM
Human RAP (ligand) YSREKNQPKPSPKRESGEEFRMEKLNQLWEKAQRLHLPPVRLAELHADLKIQERDELAWKKLKLDGLDEDGEKEARLIRNLNVILAKYGLDGKKDARQVTSNSLSGTQEDGLDDPRLEKLWHKAKTSGKFSGEELDKLWREFLHHKEKVHEYNVLLETLSRTEEIHENVISPSDLSDIKGSVLHSRHTELKEKLRSINQGLDRLRRVSHQGYSTEAEFEEPRVIDLWDLAQSANLTDKELEAFREELKHFEAKIEKHNHYQKQLEIAHEKLRHAESVGDGERVSRSREKHALLEGRTKELGYTVKKHLQDLSGRISRARHNEL,EC50,[5],0.3 nM
same,EC50,[6],0.5 nM
same,fold better EC50 than monomeric mRAPc peptide,[6],64 fold
Heptide (disulfide 1-67) peptide: CGKHFEAKIEKHNHYQKQLEIAHEKLRHAESVGDAERVSRSREKHALLEGRTKELGYTVKKHLQDACG,Kd,[2],3.5 nM
MatRAP1 N-42 (ligand) FREELKHFGAKIERHNHYQKQLEIAHEWLRHAESVGDGERVSRSREKHALLEGRTKELGYTVKKHLQDLSGRISRAR,fold increase in affinity over the full-length d3 variant,MAT CR23 (human) [1],3 fold
MatRAP1 N-42 without the C-terminal linker and affinity tag (ligand) FREELKHFGAKIERHNHYQKQLEIAHEWLRHAESVGDGERVSRSREKHALLEGRTKELGYTVKKHLQDLSGRISRAR,fold increase in binding affinity over MatRAP1 N-42,MAT CR23 (human) [1],2 fold
same,fold increase in binding affinity over full-length MatRAP1 d3,MAT CR23 (human) [1],6 fold
RAP d3 (ligand) LDRLRRVSHQGYSTEAEFEEPRVIDLWDLAQSANLTDKELEAFREELKHFEAKIEKHNHYQKQLEIAHEKLRHAESVGDGERVSRSREKHALLEGRTKELGYTVKKHLQDLSGRISRAR,Kd,LRP2 CR89 (human) [7],> 300 nM
same,binding as percent of that for LRP1 CR3-5,LRP2 CR34-36 (human),< 5%
same,binding as percent of that for LRP1 CR3-5,LRP2 CR3536 (human),< 5%
same,binding as percent of that for LRP1 CR3-5,MAT CR23 (human) [8],< 5%
same,Kd,LRP1 CR3-5 (human) [9],11 nM
same,Kd,LRP1 CR3-5 (human) [10],16 nM
"MegaRAP1 d3 double revertant A256K, E270K (ligand) LDRLRRVSHQGYTTEAKFEEPRVIDLWDLAQSANLTDKELEAFREELKYFKAKIEKHNHYQKQLEIAHEKLRHAESVGDGERVSRSREKHALLEGRTKELGYTVKKHLQDLSGRISRAR",fold loss of affinity against the E270K single-site revertant,LRP2 CR89 (human) [11],2 fold
same,fold improvement in affinity against the E270K single-site revertant,LRP1 CR3-5 (human) [10],30 fold
"MegaRAP1 d3 double revertant K251E, E270K (ligand) LDRLRRVSHQGYTTEAKFEEPRVIDLWDLAQSANLTDKELEAFREELKYFEAKIEAHNHYQKQLEIAHEKLRHAESVGDGERVSRSREKHALLEGRTKELGYTVKKHLQDLSGRISRAR",fold difference in affinity against the single-site E270K revertant,LRP2 CR89 (human) [11],20 fold
MegaRAP1 d3 (ligand) LDRLRRVSHQGYTTEAKFEEPRVIDLWDLAQSANLTDKELEAFREELKYFKAKIEAHNHYQKQLEIAHEELRHAESVGDGERVSRSREKHALLEGRTKELGYTVKKHLQDLSGRISRAR,fold loss of affinity relative to LRP2 CR89,LRP2 CR89 R1088D (human),2 fold
same,Kd,LRP2 CR89 (human) [11],38 nM
MegaRAP1 d3 E270K (ligand) LDRLRRVSHQGYTTEAKFEEPRVIDLWDLAQSANLTDKELEAFREELKYFKAKIEAHNHYQKQLEIAHEKLRHAESVGDGERVSRSREKHALLEGRTKELGYTVKKHLQDLSGRISRAR,Kd,LRP2 CR89 (human) [11],8 nM
same,Kd,LRP1 CR3-5 (human) [10],142 nM
"RAP d3 E251K, K256A, K270E (ligand) LDRLRRVSHQGYSTEAEFEEPRVIDLWDLAQSANLTDKELEAFREELKHFKAKIEAHNHYQKQLEIAHEELRHAESVGDGERVSRSREKHALLEGRTKELGYTVKKHLQDLSGRISRAR",Kd,LRP2 CR89 (human) [7],114 nM
mRAP-14c (disulfide 1-60) peptide: CEAKIEKHNHYQKQLEIAHEKLRHAESVGDGERVSRSREKHALLEGRTKELGYTVKKHGC,Kd,[2],21 nM
